Data reported in article PMC3375223, “Caspase Inhibitors of the P35 Family Are More Active When Purified from Yeast than Bacteria” (PLoS ONE, 2012).
Values joined by “and” are separate entries in the source; they are usually repeats but may differ in a detail not shown here. Equal entries are not always repeated.

B1: MaviP35-FLAG purified from Escherichia coli (natural protein)
chain: CVIFPVEIDVSQTVIKDCQVNKQTRELVYINKIMNIELTKPVLMMFNISGPIKSVTRKNNNLRDEIKSEIDKQFDQLERDHSTQFDGGHCIKYFKDEHYSISCQSGNVLKSKFEKILKSHGYTDEKSIEAYKKYCLPKLVDEQNNYYVAVCVLKPGFEKGSNQVLSFEYNPIGNKVIVPFAHEINDTGLYEYDAAAYVDNVKFDGEQQFEKFVQSLTLPSAYDDEEVLYYNETSENKRMMYKALEFKTKSCWGKFEWDYWKIFCNGFIYDEKLKVLYVKLHNVTSRVNNNIILNID
modifications: N-acetylated amino terminus on 24% of the protein
notes: MaviP35, the P35 orthologue of Maruca vitrata MNPV; full length protein lacking the initiating methionine (by mass spectrometry); expressed from pET23a-MaviP35-FLAG; Same coding region as m2 (excised from pGALL-(HIS3)-MaviP35-FLAG); the host differs; also called bacterially purified MaviP35; bacterially-produced MaviP35; source: E. coli BL21-(DE3)-pLysS, purified (Anti-FLAG M2-agarose, FLAG …)
B2: MaviP35-FLAG purified from Saccharomyces cerevisiae (natural protein)
chain: B1 chain
modifications: N-acetylated amino terminus on 12% of the protein
notes: MaviP35, the P35 orthologue of Maruca vitrata MNPV; full length protein lacking the initiating methionine (by mass spectrometry); expressed from pGALL-(HIS3)-MaviP35-FLAG; also called yeast-purified MaviP35; yeast-isolated MaviP35; source: gel filtration for some experiments; not shown: FLAG, C-terminal, kept
B3: AcP35-FLAG purified from Saccharomyces cerevisiae (natural protein)
chain: CVIFPVEIDVSQTIIRDCQVDKQTRELVYINKIMNTQLTKPVLMMFNISGPIRSVTRKNNNLRDRIKSKVDEQFDQLERDYSDQMDGFHDSIKYFKDEHYSVSCQNGSVLKSKFAKILKSHDYTDKKSIEAYEKYCLPKLVDERNDYYVAVCVLKPGFENGSNQVLSFEYNPIGNKVIVPFAHEINDTGLYEYDVVAYVDSVQFDGEQFEEFVQSLILPSSFKNSEKVLYYNEASKNKSMIYKALEFTTESSWGKSEKYNWKIFCNGFIYDKKSKVLYVKLHNVTSALNKNVILNTIK
modifications: N-acetylated amino terminus on 13% of the protein

Legend:
[1] = molecular target: the molecule itself; experiment: SEC; Superdex S200 on an ÄKTA purifier, 0.6 ml/min, 20 mM Tris pH 7.4, 50 mM NaCl; sizes by elution against BioRad gel filtration standard
[2] = molecular target: the molecule itself; experiment: cross-linking; purified FLAG-tagged MaviP35 incubated in 5 µM BMH for 30 min at room temperature, boiled in loading dye with 5% β-mercaptoethanol, SDS-PAGE and anti-FLAG immunoblot; oligomer sizes by migration against markers
[3] = molecular target: the molecule itself; experiment: AUC; sedimentation velocity of gel filtration fractions (yeast 111–215 kDa, bacterial 89–138 kDa), 20°C, PBS, 40,000 rpm, 230 nm; 0.28 and 0.56 µM bacterial fractions, 1.95, 2.23 and 1.39 µM yeast fractions; c(s) and c(M) fits in SEDFIT
caspase 3 (human) = caspase 3 (human) (UniProt P42574); experiment: inhibition of caspase activity on a fluorogenic peptide, inhibition constants by a competitive model; graded concentrations of P35 protein, 30 nM caspase 3, 100 µM Ac-DEVD-AFC; constants of the yeast-purified proteins taken from ref. 22
Sequence of caspase 3 (human) (P42574 whole entry): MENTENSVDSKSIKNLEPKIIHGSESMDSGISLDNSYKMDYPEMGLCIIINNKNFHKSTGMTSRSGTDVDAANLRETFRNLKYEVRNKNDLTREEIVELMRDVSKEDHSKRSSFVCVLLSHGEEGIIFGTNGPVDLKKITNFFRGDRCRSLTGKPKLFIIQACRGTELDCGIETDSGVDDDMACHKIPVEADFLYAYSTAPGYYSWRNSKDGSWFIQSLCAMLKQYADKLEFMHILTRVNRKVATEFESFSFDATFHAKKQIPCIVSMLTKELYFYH

Row | Binder | stoichiometry N [1] | stoichiometry N [2] | stoichiometry N [3] | fold more efficient in caspase 3 inhibition (inhibition constants, Figure 1B) than bacterially-purified AcP35 (caspase 3 (human)) [fold]
1 | B1 | 3 | 10 | – | –
2 | B2 | 2 and 5 | – | 4 and 6 and 8 | –
3 | B3 | – | – | – | 6
